# Values quoted from earlier work, collected in publication PMC6435036 (Molecular pharmaceutics, 2017).
# Settings: in humans
substance,measurement,value
"ApoA-I: endogenous apolipoprotein A-I, main protein of HDL",half-life of endogenous ApoA-I protein,79.2 h
